The values that follow come from patent US20240026407A1, “MODIFICATION OF SAPONINS” (GLAXOSMITHKLINE BIOLOGICALS SA, priority 2020, published 2024).

Data set [1] is described as follows: Example 10: deglucosylation of saponins in crude bark extract (50%) using WT and engineered glucosidases G1 to G5. As to conditions: 7 h, 50% CBE, 35 degC; for % Right Peak: starting CBE 26; for % Left Peak: starting CBE 30; for % Middle Peak: starting CBE 44. Format: biochemical, Quillaja saponaria. On the procedure: Lyophilised powders from clarified cell lysate expressing glucosidases (from Example 8 WT glucosidase and engineered glucosidase polypeptides G1 to G5) and rhamnosidases (from Example 9 WT rhamnosidase and engineered rhamnosidase polypeptides R1 to R5) were dissolved in 200 mM sodium acetate aqueous solution at pH 5.8 to prepare the enzyme solutions at 4 fold the final reaction concentration as shown in Tables 19 and 20.
Each glucosidase solution was combined with an equal volume of 200 mM sodium acetate aqueous solution at pH 5.8 and separately with an equal volume of 200 mM sodium acetate aqueous solution at pH 5.8 containing 2 mg/ml rhamnosidase R5. This is a sufficient loading of rhamnosidase to effect complete hydrolysis of the relevant rhamnose moiety within 4 hours.
CBE was adjusted to pH of 6.0 to 6.2 with 2M sodium hydroxide and an equal volume added to the enzyme solution to prepare the reaction mix (i.e. 50% CBE concentration in reaction mix) and the concentration of glucosidase and/or rhamnosidase is shown in Tables 19 and 20. The reaction mix was heated to 35 degC for the time indicated in Tables 19 and 20, after which the reaction was quenched by addition of an equal volume of MeCN containing 2% acetic acid and shaken at room temperature for 10 mins prior to centrifugation (10 min, 4 degC) to remove particulates. Samples were analysed by UV HPLC using method of Experiment 4-4.
The change in composition of the Left, Middle and Right peaks is shown in Tables 19 and 20. The composition changes by the action of the enzymes depending on the presence or absence of the partner enzyme. The extent of reaction is proportional to the enzyme concentration and the reaction time under these conditions. The tables show data for enzyme concentrations and the reaction times providing for equivalent extents of reaction. The improvement resulting from the mutations introduced for each variant is equal to the fold change in enzyme concentration×time (i.e. fold improvement=(enzyme concentration×time) for preceding variant÷(enzyme concentration×time) for later variant). A cumulative fold improvement over the original enzyme variant is calculated by the product of the individual fold improvements.

Data set [2] in a line: Example 8: screening of glucosidase variants for deglycosylation of saponins in crude bark extract (FIOP). It is filed as biochemical, Quillaja saponaria. The note with it: screen temp 20, pH 6, lysate loading 2.50%, CBE loading 80%, 100 mM Potassium phosphate, Rham Present. As to the method: Libraries of genetic variants encoding mutations in the wild type Modestobacter marinus glucosidase (SEQ ID No. 262) were prepared using molecular biology techniques, enzymes were prepared linked to an N-terminally located His-tag. Single monoclonal colonies were grown in 400 ul of expression medium and protein expressed. Cell pellets were lysed in 200 ul of the relevant buffer (Table 16)
Lysate was diluted appropriately in the relevant buffer to allow a lysate loading of the indicated % loading (1% loading corresponds to use of 2 ul original lysate in a 200 ul reaction). In some experiments a rhamnosidase was also present during the screening reaction (and also in controls, negating any impact on results).
Crude bark extract (CBE) obtained by aqueous extraction of Quillaja saponaria and containing at least 2.80 mg/ml QS-21 (by HPLC-UV). The pH of CBE was adjusted to pH 6 by dropwise addition of 2M NaOH with stirring. The relevant concentration of the relevant glucosidase was added. The appropriate relative volume of pH 6 CBE (160 ul (for 80%) or 150 ul (for 75%)) was added to each well of the reaction plate. The reaction plate was sealed and incubated at the relevant temperature with shaking overnight for between 18 and 22 hours.
The reaction plate was quenched by adding 200 uL of MeCN (2% AcOH, 1 mg/mL hexanophenone) to each well of the plates. The quenched reaction plate was re-sealed and incubated at 20 deg C. with shaking for 10 min. The reaction plate was then centrifuged (10 min, 4 degC).
200 uL was transferred from each well of the quenched plate to the corresponding wells of a fresh 96 well plate and sealed. The plate was analysed by UV HPLC with the method below:
A negative control (a lysate not expressing test enzymes) and a positive control (expressing the parent comparator—wild type or previous variant as appropriate). Fold improvement over parent (FIOP) for the glucosidase (shorter method) is calculated as follows:
% right peak=100*right peak area/(right peak area+left peak area)
Average % right peak area is calculated for negative controls (per plate) and subtracted from all wells to give the increase in % right peak for each well above average negative control Average increase in % right peak is calculated for positive controls per plate
FIOP=observed increase in % right peak divided by average positive control increase

[3] abbreviates: glucosidase 0.78 mg/ml + rhamnosidase R5 0.5 mg/ml.
The mark [4] stands for this setting: glucosidase 0.78 mg/ml, no rhamnosidase.

B1: Variant G3: engineered glucosidase polypeptide, variant of Modestobacter marinus glucosidase SEQ ID No. 262 (protein)
chain: MNPASSTRTDTMTDTTARTDSRLTDALAALSLEQKVQLLTGRDYWNTWPIEEIGLRRILVSDGPSGVRGEVWDERDPSLNLPSATALASAWDPDIARRYGAAAAVEARRKGVDVVLGPTINLHRSPLGGRHFEAFSEDPVLTAELAAAYVTGVQDNGVGATPKHYVANDFETDRFTVDVRADERTLRELYLLAFEKAVTEARAWLVMSAYNGINGATATENDLLETPLNSEWGFDGVVVSDWTAVRSLESARSSQDLVMPGPVGPWGDALVEAVRTGAIDESVVDRKVLRILTLAQRVGALEGSPAIDPVWVEDGVALAREAAVEGTVLLENRDELPWDATSLRKVAVIGNNAAAAMTQGGGSANVLPEYTVSPLDGVRAALPDAEVSYSLGAVVQDGLVELPLAELTNPVTGGPGLRARFLTADGAELFGEDRRKSVLVYQGGDAPIAAAATYELTARWTPTESQTVRLGFFCFGAAQLYVDGELLVESDLQPSGTDLGAAFMNPLTASAEVELVAGKPVDVRLVHDLSAKEGFAAHALFLQLGTEPAEVDEDALIAEAAEAAEAADVVLVVVGTNSIVESEGYDRESLSLPGRQDDLVRAVVAANPRTVVLVNAGAPVLLPWRDDVAALLLGWFGGQEFGNAVADVLLGVAEPGGRLPTTWPAAEADVPVLSCTPVDGVVEYTEGIHIGYRAWLRSGATPAYWFGSGQGYTCVELTGVEAPSRARPGEIVTVSVEVANRGERDGKQVVQVYAEKPDSTVDRPVRWLVGSAPVRVPAGQTAQVEVAVPTRYLAHWAGGWQYEPGVYRLRVGTTAVELPLETTLEVSA
modifications: Seq ID No. 262 with mutations T365N, R357M, A473F, L474C, I475F, F44Y, F442Q
Consider B1, for which, in data set [1] (setting [3]), the “% change in Left Peak” value is recorded as −31%, the “% change in Middle Peak” value was −79%, the “% change in Right Peak” value turned out to be 270% and the “Cumulative Fold improvement in primary enzyme loading × time” value is reported as 64. For the same molecule, in data set [1] (setting [3]), the “Fold improvement in primary enzyme loading × time” value turned out to be 2.0, the “% Right Peak” value was 70%, the “% Left Peak” value is reported as 21% and the “% Middle Peak” value was 9%. In data set [1] (setting [4]), the “% change in Left Peak” value is −19%, the “% change in Middle Peak” value is reported as −50%, the “% change in Right Peak” value came to 206% and the “Cumulative Fold improvement in primary enzyme loading × time” value came out at 64. Also, in data set [1] (setting [4]), the “Fold improvement in primary enzyme loading × time” value was determined as 2.0, the “% Right Peak” value amounted to 53%, the “% Left Peak” value was determined as 24% and the “% Middle Peak” value is on record as 22%. The “Cumulative FIOP (cf WT)” value in data set [2] (estimate) is listed as 125. Besides, in data set [2] (fold improvement over parent), the FIOP came out at 2.5.
